{"source": "paper PMC11519345", "about": "“Structural variation of types IV-A1- and IV-A3-mediated CRISPR interference”", "target": "Type IV-A1 effector complex (Cas5-Cas8-Cas7-Cas6 crRNP), DinG-free;DinG (CasDinG, Csf4) type IV-A1 (Pseudomonas oleovorans;Pseudomonas …, UniProt A0A379PL53;A0A379PIR4;A0A379PIR9;A0A379PNK2;A0A379PL92 …, |)", "test": "cryo-EM; crRNA; DinG bound; PDB code not assigned in the material; EMSA: 10 mM HEPES pH 7.5, 150 mM NaCl, 1 nM DNA, on ice then 20 min RT, 6% native PAGE in TBE at 4 C; cryo-EM: 10 uM complex + 15 uM DNA in the same buffer, 10", "conditions": "protein: recombinant;recombinant; tags: His6 C-terminal on Cas8;; copies: 1;1;5;1;1; bubble: non-complementary protospacer, paired 15 nt and 14+ nt ends"}
{"binder": "Type IV-A1 bubbled target DNA (TS/NTS) for cryo-EM (dsDNA) DNA 1: CGGTCGGGTCATACGTCGCGTCTCGAATCTGATGCGTAACTTGGATGCTTCGTGCGTGATG DNA 2: CATCACGCACGAAGACCAAGTCAATGCTTAGTCTAATACCTGCGCTCGTATGACCCGACCG", "values": [{"measurement": "binding result", "value": "binds"}]}
